# T1: hEP heavy chain (residues 182-784 of human enteropeptidase, after trypsin activation) (human, UniProt P98073 182-784, N-linked glycans)
# T1 construct: human enteropeptidase heavy chain of the 182-1019 construct (LDLR, CUB, MAM, CUB2, LDLR2, SRCR domains); C-terminal limit 784 follows from Ile785 as the new N-terminus of the light chain; Stays linked to the light chain by the disulfide Cys772-Cys896; source: HEK293F, transfected, secreted, purified from supernatant (Ni-NTA) as the 182-1019 zymogen, then cleaved with trypsin
# T1 sequence (looked up): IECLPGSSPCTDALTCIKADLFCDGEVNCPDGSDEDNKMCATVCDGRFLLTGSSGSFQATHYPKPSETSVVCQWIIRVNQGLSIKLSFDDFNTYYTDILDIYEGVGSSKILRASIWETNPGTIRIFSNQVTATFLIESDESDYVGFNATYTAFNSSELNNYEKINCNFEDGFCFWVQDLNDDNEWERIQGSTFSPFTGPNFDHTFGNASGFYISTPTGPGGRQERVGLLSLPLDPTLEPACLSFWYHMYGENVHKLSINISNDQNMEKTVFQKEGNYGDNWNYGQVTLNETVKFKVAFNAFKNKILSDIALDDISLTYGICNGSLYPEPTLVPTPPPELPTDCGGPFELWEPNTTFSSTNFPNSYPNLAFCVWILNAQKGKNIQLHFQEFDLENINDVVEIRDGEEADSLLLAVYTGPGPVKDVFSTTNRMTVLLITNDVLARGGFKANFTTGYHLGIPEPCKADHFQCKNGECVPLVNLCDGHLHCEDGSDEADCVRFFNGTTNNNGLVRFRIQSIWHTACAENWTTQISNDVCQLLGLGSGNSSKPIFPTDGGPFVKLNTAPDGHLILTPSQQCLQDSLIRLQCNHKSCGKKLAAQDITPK
# Molecular target: T1, hEP heavy chain (residues 182-784 of …)
# Experiment: cryo-EM structure; trypsin-activated two-chain hEP (residues 182-1019), heavy and light chains linked by a disulfide; wild type, catalytic-triad mutant, or wild type incubated with nafamostat
# Conditions: both partners purified
row,Binder,binding result
1,"hEP light chain (peptidase domain, residues 785-1019), wild type (domain or fragment, human, UniProt P98073 785-1019, looked up, N-linked glycans, human enteropeptidase light chain, N-terminus Ile785 (IVGG) after trypsin cleavage; Stays linked to the heavy chain by the disulfide Cys772-Cys896; source: HEK293F, transfected, secreted, purified from supernatant (Ni-NTA) as the 182-1019 zymogen, then cleaved with trypsin) IVGGSNAKEGAWPWVVGLYYGGRLLCGASLVSSDWLVSAAHCVYGRNLEPSKWTAILGLHMKSNLTSPQTVPRLIDEIVINPHYNRRRKDNDIAMMHLEFKVNYTDYIQPICLPEENQVFPPGRNCSIAGWGTVVYQGTTANILQEADVPLLSNERCQQQMPEYNITENMICAGYEEGGIDSCQGDSGGPLMCQENNRWFLAGVTSFGYKCALPNRPGVYARVSRFTEWIQSFLH",binds
2,"hEP light chain (residues 785-1019) inhibited by nafamostat (domain or fragment, human, UniProt P98073 785-1019, looked up, Ser971 covalently bound to the reaction product of nafamostat; N-linked glycans, human enteropeptidase light chain, N-terminus Ile785 after trypsin cleavage; Stays linked to the heavy chain by the disulfide Cys772-Cys896) IVGGSNAKEGAWPWVVGLYYGGRLLCGASLVSSDWLVSAAHCVYGRNLEPSKWTAILGLHMKSNLTSPQTVPRLIDEIVINPHYNRRRKDNDIAMMHLEFKVNYTDYIQPICLPEENQVFPPGRNCSIAGWGTVVYQGTTANILQEADVPLLSNERCQQQMPEYNITENMICAGYEEGGIDSCQGDSGGPLMCQENNRWFLAGVTSFGYKCALPNRPGVYARVSRFTEWIQSFLH",binds
3,"hEP^mut light chain (peptidase domain, residues 785-1019, H825A, D876A, S971A) (domain or fragment, human, UniProt P98073 785-1019, looked up, N-linked glycans, human enteropeptidase light chain, N-terminus Ile785 after trypsin cleavage, catalytic triad mutated to Ala; The light chain of m1; also called light chain of hEP^mut) IVGGSNAKEGAWPWVVGLYYGGRLLCGASLVSSDWLVSAAACVYGRNLEPSKWTAILGLHMKSNLTSPQTVPRLIDEIVINPHYNRRRKDNAIAMMHLEFKVNYTDYIQPICLPEENQVFPPGRNCSIAGWGTVVYQGTTANILQEADVPLLSNERCQQQMPEYNITENMICAGYEEGGIDSCQGDAGGPLMCQENNRWFLAGVTSFGYKCALPNRPGVYARVSRFTEWIQSFLH",binds
